B1: Hammerhead Ribozyme (parent)
chain: ACCGGAUGUGCUUUCCGGUCUGAUGAGUCCGUGAGGACGAAACAG

Variants of: B1
Experiment: self-cleavage, relative activity (ratio to wild type); higher = more cleavage; co-transcriptional

| Variant | self-cleavage |
| --- | --- |
| U7G U24C | 1.23 |
| U7G U24G | 1.92 |
| U7G U24A | 1.4 |
| G8A G45C | 0.512 |
| G8A G45A | 0.704 |
| G8A G45U | 0.859 |
| G8C A44U | 0.56 |
| G8C A44G | 1.47 |
| G8C A44C | 0.608 |
| G8A G10A | 1.16 |
| G8A G10U | 1.31 |
| G8A G10C | 1.46 |
| U7G C29U | 1.02 |
| U7G C29G | 0.488 |
| U7G C29A | 0.642 |
| U7C G18A | 0.438 |
| U7C G18U | 0.61 |
| U7C G18C | 0.342 |
| G8A G35A | 0.939 |
| G8A G35U | 0.588 |
| G8A G35C | 0.543 |
| G8C A34G | 1.11 |
| G8C A34C | 0.83 |
| G8C A34U | 0.988 |

| Variant | self-cleavage |
| --- | --- |
| U7G C20A | 0.359 |
| U7G C20U | 0.447 |
| U7G C20G | 0.386 |
| G8A G25A | 0.405 |
| G8A G25C | 0.276 |
| G8A G25U | 0.353 |
| U7G G27A | 0.81 |
| U7G G27C | 0.763 |
| U7G G27U | 0.511 |
| U7G C38A | 0.502 |
| U7G C38G | 0.521 |
| U7G C38U | 1.4 |
| U7G G25C | 0.363 |
| U7G G25U | 0.333 |
| U7G G25A | 0.272 |
| G8A C38G | 0.708 |
| G8A C38U | 0.926 |
| G8A C38A | 0.56 |
| G8A A34C | 0.936 |
| G8A A34G | 1.06 |
| G8A A34U | 0.89 |
| G8C C16U | 1.32 |
| G8C C16A | 0.446 |
| G8C C16G | 0.511 |

| Variant | self-cleavage |
| --- | --- |
| U7C G22U | 0.289 |
| U7C G22A | 0.387 |
| U7C G22C | 0.338 |
| U7G U9G | 1.35 |
| U7G U9A | 1.19 |
| U7G U9C | 1.18 |
| U7G G35A | 0.654 |
| U7G G35C | 0.979 |
| U7G G35U | 0.911 |
| U7G C16G | 0.765 |
| U7G C16A | 0.989 |
| U7G C16U | 1.4 |
| G8A A44U | 0.648 |
| G8A A44C | 0.508 |
| G8A A44G | 1.41 |
| G8A U19A | 0.402 |
| G8A U19C | 0.489 |
| G8A U19G | 0.448 |
| U7C G36C | 0.348 |
| U7C G36A | 0.421 |
| U7C G36U | 0.422 |
| U7C U24A | 1.4 |
| U7C U24C | 1.24 |
| U7C U24G | 0.742 |

| Variant | self-cleavage |
| --- | --- |
| G8A G33A | 0.9 |
| G8A G33C | 0.949 |
| G8A G33U | 1.13 |
| G8A C43G | 0.344 |
| G8A C43A | 0.335 |
| G8A C43U | 0.381 |
| U7C G17U | 0.625 |
| U7C G17C | 0.314 |
| U7C G17A | 0.32 |
| G8A G27C | 0.665 |
| G8A G27A | 0.874 |
| G8A G27U | 0.451 |
| U7C U9C | 1.28 |
| U7C U9A | 0.524 |
| U7C U9G | 0.667 |
| G8A U9G | 0.85 |
| G8A U9C | 1.33 |
| G8A U9A | 0.863 |
| U7G | 1.37 |
| G8A U13G | 1.24 |
| G8A U13A | 1.04 |
| G8A U13C | 1.2 |
| G8C C29G | 0.571 |
| G8C C29A | 0.548 |

| Variant | self-cleavage |
| --- | --- |
| G8C C29U | 0.758 |
| G8A C15G | 0.957 |
| G8A C15U | 0.835 |
| G8A C15A | 0.937 |
| U7G U14G | 0.831 |
| U7G U14C | 0.944 |
| U7G U14A | 1.46 |
| U7G G33C | 1.23 |
| U7G G33A | 1.34 |
| U7G G33U | 1.32 |
| U7C U14C | 0.585 |
| U7C U14G | 0.975 |
| U7C U14A | 1.26 |
| U7G C30G | 1.19 |
| U7G C30A | 1.21 |
| U7G C30U | 1.34 |
| G8A A40C | 0.683 |
| G8A A40U | 0.343 |
| G8A A40G | 0.235 |
| U7G G8U | 1.36 |
| U7G G8C | 1.37 |
| U7G G8A | 1.29 |
| U7C U13C | 1.4 |
| U7C U13A | 1.22 |

| Variant | self-cleavage |
| --- | --- |
| U7C U13G | 0.7 |
| G8C C20U | 0.433 |
| G8C C20G | 0.288 |
| G8C C20A | 0.461 |
| U7C G33U | 0.755 |
| U7C G33C | 0.963 |
| U7C G33A | 1.15 |
| U7G G39U | 0.365 |
| U7G G39C | 0.293 |
| U7G G39A | 0.369 |
| G8A A41G | 0.331 |
| G8A A41U | 0.323 |
| G8A A41C | 0.353 |
| U7G U28A | 0.991 |
| U7G U28G | 0.502 |
| U7G U28C | 1.36 |
| G8C C11A | 1.43 |
| G8C C11U | 1.02 |
| G8C C11G | 1.25 |
| U7G G18U | 0.46 |
| U7G G18A | 0.807 |
| U7G G18C | 0.464 |
| G8A C11U | 0.744 |
| G8A C11G | 1.18 |

| Variant | self-cleavage |
| --- | --- |
| G8A C11A | 1.28 |
| U7G G31C | 0.968 |
| U7G G31A | 1.25 |
| U7G G31U | 1.18 |
| G8A | 1.05 |
| G8C | 1.06 |
| G8A U12C | 0.897 |
| G8A U12G | 1.25 |
| G8A U12A | 1.09 |
| G8A U14A | 0.866 |
| G8A U14C | 0.975 |
| G8A U14G | 0.988 |
| G8C A26G | 0.278 |
| G8C A26C | 0.434 |
| G8C A26U | 0.827 |
| U7C U12A | 1.42 |
| U7C U12C | 1.09 |
| U7C U12G | 1.43 |
| G8A C16U | 1.13 |
| G8A C16G | 1.03 |
| G8A C16A | 1.2 |
| G8C A41G | 0.298 |
| G8C A41C | 0.312 |

From the RNAGym collection of RNA variant scans (doi:10.7554/elife.80360)
